Assays:
[1] = molecular target: biotin beta-amyloid 1-42 peptide (Anaspec) (human); assay: cell-based or functional assay; conditions: scale: % Relative Potency
[2] = molecular target: Recombinant human amyloid β 1-42 peptide (rPeptide) (human); assay: ELISA on plate-adsorbed recombinant human Aβ 1-42, anti-human IgG-HRP detection, parallel line analysis; mean of three assays; conditions: scale: % Relative Potency

B1: crenezumab (antibody, INN chains, looked up, V domains shown)
VH: EVQLVESGGGLVQPGGSLRLSCAASGFTFSSYGMSWVRQAPGKGLELVASINSNGGSTYYPDSVKGRFTISRDNAKNSLYLQMNSLRAEDTAVYYCASGDYWGQGTTVTVSS
VL: DIVMTQSPLSLPVTPGEPASISCRSSQSLVYSNGDTYLHWYLQKPGQSPQLLIYKVSNRFSGVPDRFSGSGSGTDFTLKISRVEAEDVGVYYCSQSTHVPWTFGQGTKVEIKR
Question: With B1 as the binder, how does the Phagocytosis Reporter Cell Potency [1] read?
Answer: The Phagocytosis Reporter Cell Potency was 99.

B2: crenezumab light stress sample (2.4 million lux hours) (antibody, INN chains, looked up, V domains shown)
VH: B1 VH
VL: B1 VL
modifications: light-stressed degraded sample
Question: How did the Phagocytosis Reporter Cell Potency [1] turn out when B2 was run?
Answer: Its Phagocytosis Reporter Cell Potency is 86.

Question: What about the Aβ Binding Potency (% Relative Potency) [2] of the same binder?
Answer: The Aβ Binding Potency (% Relative Potency) was 84.

— patent publication US20220137067A1
